Test results taken from patent US8822645B2, “Prostaglandin E2 dual variable domain immunoglobulins and uses thereof” (AbbVie Inc., priority 2008, dated 2014).

B1: 2B5-hLL-8C11: anti-murine TNFα/anti-PGE2 DVD-Ig, human long linker, SEQ ID 108/109 (antibody)
heavy: QVQLQQSGPELVRPGSSVKISCKASGYTFTKYWLGWVKQRPGHGLEWIGDIYPGYDYTHYNEKFKDKATLTVDTSSSTAYMQLSSLTSEDSAIYYCARSDGSSTYWGQGTLVTVSAASTKGPSVFPLAPEFQLQQSGPELVKPGASVRISCKASGYSFTDYNMNWVKQSNGKSLEWVGVINPNYGSSTYNQKFKGKATLTVDQSSSTAYMQLNSLTSEDSAVYYCARKWGQLGRGFFDVWGTGTTVTVSS
light: DVLMTQTPLSLPVSLGDQASISCTSSQNIVHSNGNTYLEWYLQRPGQSPKLLIYKVSNRFSGVPDRFSGSGSGTVFTLKISRVEAEDLGVYYCFQVSHVPYTFGGGTKLEIKRTVAAPSVFIFPPQIVLSQSPAILSASPGEKVTMTCRASSSVSYMHWFQQKPGSSPKPWIYATSNLASGVPARFSGSGSGTSYSLTISRVEAEDAATYYCQQWSSSPLTFGAGTKLELKR
B2: 2B5-hSL-8C11: anti-murine TNFα/anti-PGE2 DVD-Ig, human short linker, SEQ ID 106/107 (antibody)
heavy: QVQLQQSGPELVRPGSSVKISCKASGYTFTKYWLGWVKQRPGHGLEWIGDIYPGYDYTHYNEKFKDKATLTVDTSSSTAYMQLSSLTSEDSAIYYCARSDGSSTYWGQGTLVTVSAASTKGPEFQLQQSGPELVKPGASVRISCKASGYSFTDYNMNWVKQSNGKSLEWVGVINPNYGSSTYNQKFKGKATLTVDQSSSTAYMQLNSLTSEDSAVYYCARKWGQLGRGFFDVWGTGTTVTVSS
light: DVLMTQTPLSLPVSLGDQASISCTSSQNIVHSNGNTYLEWYLQRPGQSPKLLIYKVSNRFSGVPDRFSGSGSGTVFTLKISRVEAEDLGVYYCFQVSHVPYTFGGGTKLEIKRTVAAPQIVLSQSPAILSASPGEKVTMTCRASSSVSYMHWFQQKPGSSPKPWIYATSNLASGVPARFSGSGSGTSYSLTISRVEAEDAATYYCQQWSSSPLTFGAGTKLELKR
B3: DVD154: DVD-Ig construct listed in Table 4 (antibody)
VH: EVQLVQSGAEVKKPGESLKISCKVSGYFFTTYWIGWVRQMPGKGLEYMGIIYPGDSDTRYSPSFQGQVTISADKSISTAYLQWSSLKASDTAMYYCARGGNWNCFDYWGQGTLVTVSSASTKGPEVQLVQSGAEVKKPGASVKVSCKASGYTFTKYWLGWVRQAPGQGLEWMGDIYPGYDYTHYNEKFKDRVTLTTDTSTSTAYMELRSLRSDDTAVYYCARSDGSSTYWGQGTLVTVSS
VL: EIVLTQSPGTLSLSPGERATLSCRASQSVSSSYLAWYQQKPGQAPRLLIYGASRRATGIPDRFSGSGSGTDFTLTISRLEPEDFAVYYCQRYGSSHTFGQGTKLEISRTVAAPDVLMTQTPLSLPVTPGEPASISCTSSQNIVHSNGNTYLEWYLQKPGQSPQLLIYKVSNRFSGVPDRFSGSGSGTDFTLKISRVEAEDVGVYYCFQVSHVPYTFGGGTKVEIKR

Experiments:
[1] = 3H-PGE2 ELISA (PGE2 binding affinity)
Description: Alternatively, prostaglandin binding screen for antibodies or DVD-Ig molecules can be determined using a ^3H-PGE2 ELISA. Plates were coated at 50 μl/well with 5 μg/ml of goat anti-human IgG (Fc) (Thermo Scientific #31170, Hudson, N.H.) or goat anti-mouse IgG (Fc) (Thermo Scientific #31125, Hudson, N.H.) in PBS and incubated overnight at 4° C. The following day plates were flicked and blotted dry. Plates were then blocked with 200 μL/well of Superblock (Thermo Scientific #37515, Hudson, N.H.), for 1 hour at room temperature. Plates were flicked and blotted dry. Monoclonal antibodies were diluted to 0.04 μg/ml in PBST (Abbott Bioresearch Center, Worcester, Mass.)/10% Superblock and 50 uL of each antibody or DVD-Ig was added to each well of the pre-blocked ELISA plate at 2 ng/well and incubated for 1 hour at room temperature. Wells were washed 3 times with PBS+0.1% Tween-20. A serial 3 fold titration of ^3H-PGE2 (Perkin Elmer #NET-428, Waltham, Mass.) was prepared in PBST+10% Superblock. Fifty microliters of the ^3H-PGE2 solution was then added to each well of the plate and incubated for 1 hour at room temperature. Wells were washed 6 times with PBST+10% Superblock and 50 μL of scintillation fluid (Perkin Elmer #6013621, Waltham, Mass.) added to each well. Plates were read using the TopCount reader (Perkin Elmer, Waltham, Mass.) with a 5 minutes count delay. EC50 number was determined using GraphPad Prism 5 (GraphPad Software, La Jolla, Calif.).

[2] = test system: PGE2 / human EP4 receptor in HEK293 Gα16 cells; test: EP4 bioassay (Ca++ flux, neutralization of PGE2); assay type: cell-based; settings: for IC50: EP4 assay
Description: The ability of anti-PGE2 antibodies and anti-PGE2 containing DVD-Ig molecules to inhibit the cellular response of PGE2 was determined in a Ca++ flux assay in HEK293 Gα16 cells stably transfected with human EP4 receptor. Cells were plated in black/clear poly-D-lysine plates, (Corning #3667, Corning, N.Y.) and incubated with Ca++-sensitive dye (Molecular Devices) for 90 minutes. Stock PGE2 (in 200 proof ethanol) was diluted with FLIPR buffer (containing 1×HBSS (Invitrogen, Carlsbad, Calif.), 20 mM HEPES (Invitrogen, Carlsbad, Calif.), 0.1% BSA (Sigma, St. Louis, Mo.) and 2.5 mM Probenecid (Sigma, St. Louis, Mo.)). Anti-PGE2 antibodies, DVD-Ig molecules or isotype matched control antibodies were also pre-diluted in FLIPR buffer. 25 μl of PGE2 or pre-incubated PGE2/antibody mixture or pre-incubated PGE2/DVD-Ig molecule mixture was added to the wells pre-plated with cells. A dose response of PGE2 was done by a serial titration of PGE2 and was determined using FLIPR1 or Tetra (Molecular Devices). EC50 was determined using GraphPad Prism 5 (GraftPad Software, La Jolla, Calif.). […] Ca++ flux was monitored using FLIPR1 and data was analyzed using GraphPad Prism 5.
The ability of anti-PGE2 antibodies and anti-PGE2 containing DVD-Ig molecules to inhibit the cellular response of PGE2 was determined in a Ca++ flux assay using stably transfected human EP4 in HEK293 Gα16 cells. Cells were plated in black/clear Poly-D-Lysine plates, (Corning #3667) and incubated with Ca++-sensitive dye (Molecular Devices) for 90 minutes. Stock PGE2 (in 200 proof ethanol) was diluted with FLIPR buffer (containing 1×HBSS, 20 mM HEPES, 0.1% BSA and 2.5 mM Probenecid). Anti-PGE2 antibodies, DVD-Ig molecules or isotype matched control antibodies were also pre-diluted in FLIPR buffer. 25 μl of PGE2 or pre-incubated PGE2/antibody mixture or pre-incubated PGE2/DVD-Ig molecule mixture was added to the wells pre-plated with cells. A dose response of PGE2 was done by a serial titration of PGE2 and was determined using FLIPR1 or Tetra (Molecular Devices). EC50 was determined using GraphPad Prism 5. […] Ca++ flux was monitored using FLIPR1 and data was analyzed using GraphPad Prism 5.

[3] = PGE2-biotinamide ELISA (PGE2 binding); settings: PGE2 VD in C-terminal position, read-out: Direct Bind ELISA C-terminal VD EC50
Description: (§1) Enzyme linked immunosorbent assays to screen for anti-PGE2 antibodies or anti-PGE2 containing DVD-Ig molecules that bind prostaglandin E2 were performed as follows. ELISA plates (Costar 3369, Corning, N.Y.) were coated with 50 μl of anti-host Fc IgG (Sigma, St. Louis, Mo.) at 2 μg/ml in PBS (Invitrogen Carlsbad, Calif.). Following an overnight incubation at 4° C., the plate was blocked with 200 μl Superblock (Pierce #37535, Rockford, Ill.). The IgG or DVD-Ig containing samples were diluted to 1 μg/ml in Assay Buffer (10% Superblock in PBS containing 0.05% Surfactamps (Pierce #37535, Rockford, Ill.) and incubated on the plate at 50 μl/well for 1 hour at room temperature. Following the incubation, plates were washed four times with TTBS (Tween-Tris Buffered Solution). For PGE2 binding, PGE2-biotinamide (Cayman Chemicals, Ann Arbor, Mich.) was diluted to 30 nM and serially diluted in Assay Buffer. The titration curve was added to each IgG or DVD-Ig sample at a volume of 50 μl/well and incubated for 1 hour at room temperature. The plates were washed as previously described and 50 μl/well of 1:5000 dilution of streptavidin polyhrp40 (Fitzgerald Industries, Concord, Mass.) in Assay Buffer was added and incubated for 45 minutes at room temperature. A final wash step was performed and the plates were developed using a single step TMB system (Sigma #T8665, St. Louis, Mo.) and 2N H2SO4. Plates were read at 450 nm on a Molecular Devices Spectramax plate reader (Sunnyvale, Calif.). EC50 was determined using GraphPad Prism 5 (GraphPad Software, La Jolla, Calif.) (FIG. 2).
as §1, with “ELISA” for “Enzyme linked immunosorbent assays to screen for anti-PGE2 antibodies or anti-PGE2 containing DVD-Ig molecules that bind prostaglandin E2 were performed as follows. ELISA”, “(Invitrogen,” for “(Invitrogen”, “IgG” for “IgG or DVD-Ig”, “Solution).” for “Solution). For PGE2 binding,”, “Calif.).” for “Calif.) (FIG. 2).”

[4] = test system: target antigen; test: BIACORE affinity determination of parent antibodies and DVD-Ig constructs; assay type: binding; settings: antigen IL-15, 25° C.
Description: The BIACORE assay (Biacore, Inc, Piscataway, N.J.) determines the affinity of antibodies or DVD-Ig with kinetic measurements of on-rate and off-rate constants. […] All chemicals are obtained from Biacore® AB (Uppsala, Sweden) or otherwise from a different source as described in the text. For example, approximately 5000 RU of goat anti-mouse IgG, (Fcγ), fragment specific polyclonal antibody (Pierce Biotechnology Inc, Rockford, Ill.) diluted in 10 mM sodium acetate (pH 4.5) is directly immobilized across a CM5 research grade biosensor chip using a standard amine coupling kit according to manufacturer's instructions and procedures at 25 μg/ml. Unreacted moieties on the biosensor surface are blocked with ethanolamine. Modified carboxymethyl dextran surface in flowcell 2 and 4 is used as a reaction surface. Unmodified carboxymethyl dextran without goat anti-mouse IgG in flow cell 1 and 3 is used as the reference surface. For kinetic analysis, rate equations derived from the 1:1 Langmuir binding model are fitted simultaneously to association and dissociation phases of all eight injections (using global fit analysis) with the use of Biaevaluation 4.0.1 software. Purified antibodies or DVD-Ig are diluted in HEPES-buffered saline for capture across goat anti-mouse IgG specific reaction surfaces. Antibodies or DVD-Ig to be captured as a ligand (25 μg/ml) are injected over reaction matrices at a flow rate of 5 μl/min. The association and dissociation rate constants, kon (M^−1 s^−1) and koff (s^−1) are determined under a continuous flow rate of 25 μl/min. Rate constants are derived by making kinetic binding measurements at different antigen concentrations ranging from 10-200 nM. The equilibrium dissociation constant (M) of the reaction between antibodies or DVD-Igs and the target antigen is then calculated from the kinetic rate constants by the following formula: KD=koff/kon. Binding is recorded as a function of time and kinetic rate constants are calculated. In this assay, on-rates as fast as 10^6 M^−1 s^−1 and off-rates as slow as 10^−6 s^−1 can be measured.

[5] = Size exclusion chromatography, percent monomer of parent antibodies and DVD-Ig constructs; assay type: physicochemical
Description: Antibodies were diluted to 2.5 mg/mL with water and […] is analyzed on a Shimadzu HPLC system using a TSK gel G3000 SWXL column (Tosoh Bioscience, cat#k5539-05k). […] The HPLC system operating conditions are the following: […]

| Molecule | Kd [1] | IC50 [2] | EC50 [3] | koff [4] | EC50 ([2]; PGE2 VD in C-terminal position, EP4 bioassay, Ca++ flux, read-out: C-terminal VD PGE2 Neutralization EC50) | % Monomer (purity) [5] |
| --- | --- | --- | --- | --- | --- | --- |
| B1 | 0.383 nM | 0.064 nM | – | – | – | – |
| B2 | 0.238 nM | 0.02 nM | – | – | – | – |
| B3 | – | – | 1.54 nM | 0.00198 s⁻¹ | 0.029 nM | 88.7% |
